Data as given in patent US20140087995A1 (published 2014).
Numbered stars: 1 amine (or outer) side, 2 acyl side, 3 side chain; on linkers, the order of the positions; unused ones are H or OH. Bridge positions count the residues as written; N and C are the ends. Side chains are listed from the residue outwards. Ends that are not written are not given here. * marks the point of attachment. C20 diacid = O=C(O)CCCCCCCCCCCCCCCCCCC(=O)*; γGlu = O=C(O)[C@H](CCC(=O)[*:2])N[*:1]

Tests used:
[1] = biological target: T1, human calcitonin receptor (human, UniProt P30988 25-474); test: ratio of IC50 at human calcitonin receptor to IC50 at human amylin receptor (SPA competition assays)
T1 construct: whole, on cells; also called hCTR; hCT
T1 sequence (looked up): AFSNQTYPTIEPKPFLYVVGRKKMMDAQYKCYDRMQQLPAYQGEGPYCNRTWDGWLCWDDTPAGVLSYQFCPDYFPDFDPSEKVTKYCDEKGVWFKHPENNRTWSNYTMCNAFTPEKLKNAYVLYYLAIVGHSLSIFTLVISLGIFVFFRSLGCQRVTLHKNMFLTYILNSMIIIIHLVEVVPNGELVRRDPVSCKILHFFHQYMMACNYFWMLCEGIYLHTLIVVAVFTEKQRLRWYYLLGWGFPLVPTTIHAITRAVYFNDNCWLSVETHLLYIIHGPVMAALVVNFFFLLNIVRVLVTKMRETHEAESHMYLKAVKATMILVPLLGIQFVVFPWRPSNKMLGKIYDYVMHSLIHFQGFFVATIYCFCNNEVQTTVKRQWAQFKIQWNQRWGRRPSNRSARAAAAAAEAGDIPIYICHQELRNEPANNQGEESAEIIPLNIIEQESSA
Method in brief: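 Membranes (35 ng/μL final) + SPA beads, 50 mM Hepes pH 7.4 buffer with 1 mM CaCl2, 5 mM MgCl₂, 0.1% OA, 0.02% Tween20; 120 min, 25° C, shaking; centrifuged, counted; IC₅₀ by one-site binding competition.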

[2] = biological target: T1, human calcitonin receptor; test: SPA competition against 125I-calcitonin, membranes of BHK cells with human calcitonin receptor (Assay VII)
Method in brief: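 BHK hCTR membranes 35 ng/μL + SPA beads 0.05 mg/well; buffer 50 mM Hepes pH 7.4, 1 mM CaCl2, 5 mM MgCl₂, 0.1% OA, 0.02% Tween20. 120 min, 25° C., shaking. Scintillation count; IC50 by one-site binding competition.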

[3] = biological target: T2, human calcitonin receptor (human, UniProt P30988 25-474); test: cell-based or functional assay
T2 sequence (looked up): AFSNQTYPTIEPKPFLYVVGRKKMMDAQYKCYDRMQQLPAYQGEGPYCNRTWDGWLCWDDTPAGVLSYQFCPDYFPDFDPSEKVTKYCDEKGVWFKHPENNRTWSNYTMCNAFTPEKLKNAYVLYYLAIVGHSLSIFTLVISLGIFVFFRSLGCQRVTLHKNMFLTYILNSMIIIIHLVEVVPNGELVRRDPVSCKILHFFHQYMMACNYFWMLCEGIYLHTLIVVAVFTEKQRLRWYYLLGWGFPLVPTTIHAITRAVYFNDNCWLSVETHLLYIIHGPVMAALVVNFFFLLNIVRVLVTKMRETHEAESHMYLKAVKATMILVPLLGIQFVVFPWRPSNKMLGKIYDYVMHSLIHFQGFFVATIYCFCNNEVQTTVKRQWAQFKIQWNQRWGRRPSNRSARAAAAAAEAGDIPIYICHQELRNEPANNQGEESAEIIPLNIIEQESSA

B1: N^ε1-[(4S)-4-carboxy-4-[[(4S)-4-carboxy-4-(19-carboxynonadecanoylamino)butanoyl]amino]butanoyl]-[Asp14,Arg17,Pro21,Pro27,Pro34,Arg35]-h-amylin (peptide)
peptide: K([γGlu-γGlu-C20 diacid])CNTATCATQRLADFLRHSSPNFGAIPSSTNVGPRTY-NH2
modifications: disulfide 2-7; N-terminus assumed
SMILES: CC[C@H](C)[C@H](NC(=O)[C@H](C)NC(=O)CNC(=O)[C@H](Cc1ccccc1)NC(=O)[C@H](CC(N)=O)NC(=O)[C@@H]1CCCN1C(=O)[C@H](CO)NC(=O)[C@H](CO)NC(=O)[C@H](Cc1c[nH]cn1)NC(=O)[C@H](CCCNC(=N)N)NC(=O)[C@H](CC(C)C)NC(=O)[C@H](Cc1ccccc1)NC(=O)[C@H](CC(=O)O)NC(=O)[C@H](C)NC(=O)[C@H](CC(C)C)NC(=O)[C@H](CCCNC(=N)N)NC(=O)[C@H](CCC(N)=O)NC(=O)[C@@H](NC(=O)[C@H](C)NC(=O)[C@@H]1CSSC[C@H](NC(=O)[C@@H](N)CCCCNC(=O)CC[C@H](NC(=O)CC[C@H](NC(=O)CCCCCCCCCCCCCCCCCCC(=O)O)C(=O)O)C(=O)O)C(=O)N[C@@H](CC(N)=O)C(=O)N[C@@H]([C@@H](C)O)C(=O)N[C@@H](C)C(=O)N[C@@H]([C@@H](C)O)C(=O)N1)[C@@H](C)O)C(=O)N1CCC[C@H]1C(=O)N[C@@H](CO)C(=O)N[C@@H](CO)C(=O)N[C@H](C(=O)N[C@@H](CC(N)=O)C(=O)N[C@H](C(=O)NCC(=O)N1CCC[C@H]1C(=O)N[C@@H](CCCNC(=N)N)C(=O)N[C@H](C(=O)N[C@@H](Cc1ccc(O)cc1)C(N)=O)[C@@H](C)O)C(C)C)[C@@H](C)O
notes: also called compound 130
B1 was tested, and the “Ratio hCT/hAmylin binding” value [1] was 280 and the IC50 [2] was 127 nM.

With K([γGlu-γGlu-C20 diacid])CNTATCATQRLADFLRHSSPNFGAIPSSTNVGPETY-NH2 (disulfide 2-7) the “Ratio hCT/hAmylin binding” value [1] was 49.8 and the IC50 [2] was 8.56 nM.

B2: N^ε1-[(4S)-4-carboxy-4-[[(4S)-4-carboxy-4-(19-carboxynonadecanoylamino)butanoyl]amino]butanoyl]-[Glu14,Arg17,Pro21,Pro27,Pro34,Phe37]-h-amylin (peptide)
peptide: K([γGlu-γGlu-C20 diacid])CNTATCATQRLAEFLRHSSPNFGAIPSSTNVGPNTF-NH2
modifications: disulfide 2-7; N-terminus assumed
SMILES: CC[C@H](C)[C@H](NC(=O)[C@H](C)NC(=O)CNC(=O)[C@H](Cc1ccccc1)NC(=O)[C@H](CC(N)=O)NC(=O)[C@@H]1CCCN1C(=O)[C@H](CO)NC(=O)[C@H](CO)NC(=O)[C@H](Cc1c[nH]cn1)NC(=O)[C@H](CCCNC(=N)N)NC(=O)[C@H](CC(C)C)NC(=O)[C@H](Cc1ccccc1)NC(=O)[C@H](CCC(=O)O)NC(=O)[C@H](C)NC(=O)[C@H](CC(C)C)NC(=O)[C@H](CCCNC(=N)N)NC(=O)[C@H](CCC(N)=O)NC(=O)[C@@H](NC(=O)[C@H](C)NC(=O)[C@@H]1CSSC[C@H](NC(=O)[C@@H](N)CCCCNC(=O)CC[C@H](NC(=O)CC[C@H](NC(=O)CCCCCCCCCCCCCCCCCCC(=O)O)C(=O)O)C(=O)O)C(=O)N[C@@H](CC(N)=O)C(=O)N[C@@H]([C@@H](C)O)C(=O)N[C@@H](C)C(=O)N[C@@H]([C@@H](C)O)C(=O)N1)[C@@H](C)O)C(=O)N1CCC[C@H]1C(=O)N[C@@H](CO)C(=O)N[C@@H](CO)C(=O)N[C@H](C(=O)N[C@@H](CC(N)=O)C(=O)N[C@H](C(=O)NCC(=O)N1CCC[C@H]1C(=O)N[C@@H](CC(N)=O)C(=O)N[C@H](C(=O)N[C@@H](Cc1ccccc1)C(N)=O)[C@@H](C)O)C(C)C)[C@@H](C)O
For B2, the “Ratio hCT/hAmylin binding” value [1] was 18 and the IC50 [2] was 2.73 nM.

B3: N^ε1-[(4S)-4-carboxy-4-[[(4S)-4-carboxy-4-(19-carboxynonadecanoylamino)butanoyl]amino]butanoyl]-[Ser14,Arg17,Pro21,Pro27,Pro34,Glu35]-h-amylin (peptide)
peptide: K([γGlu-γGlu-C20 diacid])CNTATCATQRLASFLRHSSPNFGAIPSSTNVGPETY-NH2
modifications: disulfide 2-7; N-terminus assumed
SMILES: CC[C@H](C)[C@H](NC(=O)[C@H](C)NC(=O)CNC(=O)[C@H](Cc1ccccc1)NC(=O)[C@H](CC(N)=O)NC(=O)[C@@H]1CCCN1C(=O)[C@H](CO)NC(=O)[C@H](CO)NC(=O)[C@H](Cc1c[nH]cn1)NC(=O)[C@H](CCCNC(=N)N)NC(=O)[C@H](CC(C)C)NC(=O)[C@H](Cc1ccccc1)NC(=O)[C@H](CO)NC(=O)[C@H](C)NC(=O)[C@H](CC(C)C)NC(=O)[C@H](CCCNC(=N)N)NC(=O)[C@H](CCC(N)=O)NC(=O)[C@@H](NC(=O)[C@H](C)NC(=O)[C@@H]1CSSC[C@H](NC(=O)[C@@H](N)CCCCNC(=O)CC[C@H](NC(=O)CC[C@H](NC(=O)CCCCCCCCCCCCCCCCCCC(=O)O)C(=O)O)C(=O)O)C(=O)N[C@@H](CC(N)=O)C(=O)N[C@@H]([C@@H](C)O)C(=O)N[C@@H](C)C(=O)N[C@@H]([C@@H](C)O)C(=O)N1)[C@@H](C)O)C(=O)N1CCC[C@H]1C(=O)N[C@@H](CO)C(=O)N[C@@H](CO)C(=O)N[C@H](C(=O)N[C@@H](CC(N)=O)C(=O)N[C@H](C(=O)NCC(=O)N1CCC[C@H]1C(=O)N[C@@H](CCC(=O)O)C(=O)N[C@H](C(=O)N[C@@H](Cc1ccc(O)cc1)C(N)=O)[C@@H](C)O)C(C)C)[C@@H](C)O
notes: also called compound 120
For B3, the “Ratio hCT/hAmylin binding” value [1] was 45.3 and the IC50 [2] was 3.44 nM.

For K([γGlu-γGlu-C20 diacid])CNTATCATQRLAEFLRHSSPNFGAIPSSTNVGPHTY-NH2 (disulfide 2-7 (inferred)), the “Ratio hCT/hAmylin binding” value [1] was 27.3 and the IC50 [2] was 10.3 nM.

K([γGlu-γGlu-C20 diacid])CNTATCATQRLAEFLRHSSPNFGAILSSTPVGPETY-NH2 (disulfide 2-7 (inferred)) was tested, and the “Ratio hCT/hAmylin binding” value [1] was 22.6 and the IC50 [2] was 1.56 nM.

B4: N^α1-[(4S)-4-carboxy-4-(19-carboxynonadecanoylamino)butanoyl]-[Glu14,Arg17,Pro21,Pro25,Pro28,Pro29,Pro37]-h-amylin (peptide)
peptide: {C20 diacid-γGlu}-KCNTATCATQRLAEFLRHSSPNFGPILPPTNVGSNTP-NH2
modifications: disulfide 2-7
SMILES: CC[C@H](C)[C@H](NC(=O)[C@@H]1CCCN1C(=O)CNC(=O)[C@H](Cc1ccccc1)NC(=O)[C@H](CC(N)=O)NC(=O)[C@@H]1CCCN1C(=O)[C@H](CO)NC(=O)[C@H](CO)NC(=O)[C@H](Cc1c[nH]cn1)NC(=O)[C@H](CCCNC(=N)N)NC(=O)[C@H](CC(C)C)NC(=O)[C@H](Cc1ccccc1)NC(=O)[C@H](CCC(=O)O)NC(=O)[C@H](C)NC(=O)[C@H](CC(C)C)NC(=O)[C@H](CCCNC(=N)N)NC(=O)[C@H](CCC(N)=O)NC(=O)[C@@H](NC(=O)[C@H](C)NC(=O)[C@@H]1CSSC[C@H](NC(=O)[C@H](CCCCN)NC(=O)CC[C@H](NC(=O)CCCCCCCCCCCCCCCCCCC(=O)O)C(=O)O)C(=O)N[C@@H](CC(N)=O)C(=O)N[C@@H]([C@@H](C)O)C(=O)N[C@@H](C)C(=O)N[C@@H]([C@@H](C)O)C(=O)N1)[C@@H](C)O)C(=O)N[C@@H](CC(C)C)C(=O)N1CCC[C@H]1C(=O)N1CCC[C@H]1C(=O)N[C@H](C(=O)N[C@@H](CC(N)=O)C(=O)N[C@H](C(=O)NCC(=O)N[C@@H](CO)C(=O)N[C@@H](CC(N)=O)C(=O)N[C@H](C(=O)N1CCC[C@H]1C(N)=O)[C@@H](C)O)C(C)C)[C@@H](C)O
notes: Synthetic acylated analogue of human amylin; also called compound 4
With B4 the “hCTR funct. EC50 (CRE luciferase reporter, BHK cells)” value [3] was 0.07 nM.
